{
  "source": "paper PMC3247650",
  "about": "(Pharmaceutical research, 2011)",
  "key": {"[1]": {"test": "Stability of PGC-C18-GLP-1 formulation at 37°C", "type": "physicochemical", "details": "GLP-1 without PGC-C18, liquid, 100mM glycine pH 6.8, 2mg/ml GLP-1, 37°C, total GLP-1 peak by reverse phase HPLC"}, "Porcine kidney DPP IV": {"biological_target": "Porcine kidney DPP IV (Sus scrofa, UniProt P22411)", "sequence (P22411 whole entry)": "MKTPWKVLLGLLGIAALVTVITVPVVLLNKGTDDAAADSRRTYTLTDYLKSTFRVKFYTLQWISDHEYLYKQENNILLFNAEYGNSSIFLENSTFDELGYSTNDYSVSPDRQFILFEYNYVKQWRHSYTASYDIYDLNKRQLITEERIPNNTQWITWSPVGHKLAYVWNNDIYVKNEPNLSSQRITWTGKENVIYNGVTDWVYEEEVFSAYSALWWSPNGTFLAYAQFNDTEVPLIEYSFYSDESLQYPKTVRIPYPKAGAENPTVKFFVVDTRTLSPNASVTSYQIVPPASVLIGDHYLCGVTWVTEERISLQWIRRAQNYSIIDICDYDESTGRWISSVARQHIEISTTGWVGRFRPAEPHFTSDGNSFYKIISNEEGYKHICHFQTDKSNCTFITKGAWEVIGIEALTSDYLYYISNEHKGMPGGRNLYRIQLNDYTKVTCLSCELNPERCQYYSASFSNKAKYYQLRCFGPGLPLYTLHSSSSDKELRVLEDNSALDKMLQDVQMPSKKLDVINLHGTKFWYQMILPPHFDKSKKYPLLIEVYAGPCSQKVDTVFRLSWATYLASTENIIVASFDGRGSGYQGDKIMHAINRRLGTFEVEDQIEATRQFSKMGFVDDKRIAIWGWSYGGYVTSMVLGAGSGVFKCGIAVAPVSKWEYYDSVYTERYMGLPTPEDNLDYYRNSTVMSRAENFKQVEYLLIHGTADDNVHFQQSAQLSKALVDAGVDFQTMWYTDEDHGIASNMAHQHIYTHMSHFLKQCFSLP", "test": "DPP IV degradation of GLP-1 in the presence or absence of PGC or PGC-C18", "type": "in vitro ADME", "details": "24 hours, 37°C, reverse phase HPLC, mean +/−SD, n=6"}, "DPP IV": {"system": "DPP IV", "details": "read-out: Km of DPP IV for GLP-1; cited from earlier work"}, "Appearance": {"test": "Appearance", "type": "physicochemical", "details": "GLP-1 1mg/ml in neutral solution"}},
  "data": [
    {"substance": "Glucagon-like peptide-1 [GLP-1]", "values": [
      {"measurement": "GLP-1 broken down within a month", "setting": "[1]", "result": "greater than 10%"},
      {"measurement": "GLP-1 degraded by DPP IV in the presence of the carrier PGC-C18", "setting": "Porcine kidney DPP IV; 1mg/ml GLP-1 + 10mg/ml PGC-C18 (1:10 w/w), PBS pH 7.4, 1.25mU/mL DPP IV", "result": "26+/−2%"},
      {"measurement": "GLP-1 degraded by DPP IV, without any carrier", "setting": "Porcine kidney DPP IV; 1mg/ml GLP-1, PBS pH 7.4, 1.25mU/mL DPP IV", "result": "58+/−5%"},
      {"measurement": "Km", "setting": "DPP IV", "result": 36, "unit": "µM"},
      {"measurement": "appearance of solution when heated to 50°C", "setting": "Appearance; 50°C", "result": "quite clear"},
      {"measurement": "appearance of solution as it cools down to room temperature", "setting": "Appearance; cooled from 50°C to room temperature", "result": "turns cloudy and less soluble"}
    ]}
  ]
}
